{"source": "the supplement of paper PMC9170038"}
{"system": "K4 kissing-loop RNA reporter", "test": "apparent KD of K4 kissing-loop reporter; higher = weaker reporter binding", "conditions": "Eterna round: R107; input ligand: arginine 13.2 mM", "protocol": "(§1)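 RNA-MaP round R107: designed RNA switches with theophylline, tryptophan, arginine or FMN aptamers are transcribed on-chip within common flanks. They are titrated with a labelled K4 kissing-loop RNA reporter in RNA-MaP buffer (100 mM Tris pH 7.5, 80 mM KCl, 4 mM MgCl2), without ligand or with the indicated ligand. Median apparent KD per design.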", "units": {"apparent KD of K4 kissing-loop reporter": "nM"}}
{"sequence": "CGCGCGUGAGGACUUGCCCUUCAUGGAGAUACCAGCCAGUAUGCGGGCCCUUGGCAGCUCGAGUGAUGUUCGAGUUUAAGGCAAA [Riesla]", "apparent KD of K4 kissing-loop reporter": 113}
{"sequence": "GCUAUGGUAGGAAGGAGCGCUGCCUUGUUUUUACGAGUGAUGUUCGGAAGCAGGGUGUUAAAGCAGGUAGGUCGCCUACUAUAGC [Arginine B K4 23]", "apparent KD of K4 kissing-loop reporter": 121}
{"sequence": "AAAUAAAUCAGAGGAUAUUCUUCCCACGUCGAAGUACCGUGCUUGAUGGAGUGAUGUUCGAUCAGAGAAGAAGGCUGAUAAAUAA [Same State FMN B GF 19]", "apparent KD of K4 kissing-loop reporter": 395}
{"sequence": "UAUUAAGUGACGGCCGCCACUAUGGUGAUUUAUUUGUUUGAGUGAUGUUUUGAUGUUUGAUUUUGUAGGACCGGGUUAUGUGUUA [ttttcmullin]", "apparent KD of K4 kissing-loop reporter": 641}
{"sequence": "AAACGUUGUUGCGAUACCAGCUGAUCGGAAACGAUCAUGCUGGAGUGAUGUUCCAGGAAAAGCCCUUGGCAGCGCAACGACGAAA [MAT - Same State Theophlline B - Mod of Eli - D30]", "apparent KD of K4 kissing-loop reporter": 134}
{"sequence": "CUUGGAAGGACGGCCGCCACUCGACAGUGAUGUUGUCCGAGUGGGUAGCGCAGUGAUGUUGUGUCGAGGACCGGGUCCUAGGAAU [Exclusion Tryptophan B GF 27]", "apparent KD of K4 kissing-loop reporter": 149}
{"system": "K4 kissing-loop RNA reporter", "test": "apparent KD of K4 kissing-loop reporter; higher = weaker reporter binding", "conditions": "Eterna round: R107; input ligand: none", "protocol": "as §1", "units": {"apparent KD of K4 kissing-loop reporter": "nM"}}
{"sequence": "GAUUAAUAAGAGGAUACCAGUACUAAUAAAGUACAUUAAUAGUAGAGUGAUGUUCUAUAGUACCCUUGGCAGCUUAGAGUAAGUU [#09 K4 Theophylline B Exclusion]", "apparent KD of K4 kissing-loop reporter": 167}
{"sequence": "CGUUUAUAGCAGGAUACCAGUACCCAUUAUGUACGUUAAUAGUAGAGUGAUGUUCUAAAGUACCCUUGGCAGCUUCCCGUGACCC [ExTheophylB.Y]", "apparent KD of K4 kissing-loop reporter": 140}
{"sequence": "GCGCGUCAUGUCAGCGGUGACACUGUCGAUACCAGUGCCGUAAGGCGCCCUUGGCAGCGACGUGCUGGAGUGAUGUUCCAGCGUU [#2 Exclusion - Theophylline A Attempt #31 (HarryS)]", "apparent KD of K4 kissing-loop reporter": 153}
{"sequence": "AAUUUACAUUAAUUAUUUAAAGGUUCAGAAGGAGCGUGAAUUAACACAGGUAGGUCGCUGAGCGAGUGAUGUUCGCUAUAUACUA [JR_ExcArginiA_Sub003]", "apparent KD of K4 kissing-loop reporter": 65.7}
{"sequence": "AGAUUCGACACGGCCGCCACUCGUGGAUCUUGGUUGAGAGAUGAAAUAGAGUGAUGUUCUAAUACGAGGACCGGGUGUUGAGUCU [KL-SSTryp-B23]", "apparent KD of K4 kissing-loop reporter": 200}
{"sequence": "GUGUGUGAAAACACGCACUUAUAUCCUAGGCAGGAUAUGCGGAAACGCAGAAGGGCCACCGGCGAGAAAAUCCAGUGAUGUUGGA [Ex FMN A 6]", "apparent KD of K4 kissing-loop reporter": 273}
{"sequence": "ACGUGCACGAGUGAUGUUUGAAAAUCUGAAGGAGCGGGCGAAAGCCCAGGUAGGUCGCAGAAUAGCACGAGCCACGAAAGUGGCA", "apparent KD of K4 kissing-loop reporter": 319}
{"sequence": "UAGGAGUGAUGUUCCAUAUCUUGAGCCGAAGGAGCGCCUUUCUAGGCAGGUAGGUCGCGGCAGAAGGUACCAGUGAUGUUGGAAA [Same State Arginine A GF7]", "apparent KD of K4 kissing-loop reporter": 208}
{"sequence": "UUAUAAUUCAGUGAUGUUGAAAAUAUAACAGAGGAUAUGCGUUUAAGCAGAAGGCUGAAAUACUAUACUUUAAUCUAUUAAAUUU [JR_SSFMNA_Sub019]", "apparent KD of K4 kissing-loop reporter": 313}
{"sequence": "CACAGAUCCUAAGGAUAUGGAGUGAUGUUCGCAAGUUCUUGGUGUGCAUUCAUCUGUCCUAUCAACCCAGAAGGUAGGAAGUCAC [theeternabot_exclusion_KL_FMN_B_1]", "apparent KD of K4 kissing-loop reporter": 550}
{"sequence": "UGUCAUUGGUCUGAUACCAGUUGAUAAACUGGAGUGAUGUUCCUCGACGAAUACGUCGACAACCCUUGGCAGCAGACCGAUGACU [TheoBS 14 #SwitchBubble 13 #StaticStem]", "apparent KD of K4 kissing-loop reporter": 713}
{"sequence": "GUGAGGAUCAGAAGGAGCGUCGGCAAUCCAGUGAUGUUGGGUGUUGGUUAUAUUUAACGACGACAGGUAGGUCGCUGAUUUUCAA [Same State Arginie B GF 21]", "apparent KD of K4 kissing-loop reporter": 163}
{"sequence": "UGACUACAAAAGGAAUAAUCCUAGUGAUGUUAGGAUAUGCUGAUAAGCAGAAGGAACGGAGAUCGAAGGAUCUCAUAUGUAGUCU [whbob_Ex_FMNA__2th193]", "apparent KD of K4 kissing-loop reporter": 86.9}
{"sequence": "GUAUGUUCGAAAGAACGUACAUCUUCGGAAGGAGCGCGUGAAAACGCAGGUAGGUCGCCGAAGUUAUUAGGUAGUGAUGUUACCU [Arginine A K4 8]", "apparent KD of K4 kissing-loop reporter": 101}
{"sequence": "AAAGAUCUUCUAGAAACUAGAAGAUCAAGAGAGGAUAUCCGAAUUCGGAGAAGGCUCACUAAGUGAUGUUUGGACCCAAAGGGAA [AK3 SS FMN A]", "apparent KD of K4 kissing-loop reporter": 1650}
{"sequence": "AGUGAUGUAUGGCGGUUUGUCACUUAUAAUCAGGAUAUAUAAACAAAUAGAAGGGAUGGCGGAGUGAUGUUCCGCCGGCCGCCAU [FMN A Exl V5]", "apparent KD of K4 kissing-loop reporter": 167}
{"sequence": "AUCGUUGUCUGAGGAUAUCGGUUAUCUGUAGUGAUGUUACAGUAUAUUGAUAUUAAAGUUUCUAUUCGAGAAGGCAGACUACGUA [JR_Nu_ExcFMNB_Sub022]", "apparent KD of K4 kissing-loop reporter": 72.1}
{"sequence": "CAUGUGUCUAUUACGAUGGAUACAUAUACUGAGGAUAUCACAUUUAUGAGAAGGCAGUAAACUGCGAGUGAUGUUCGCAGUACGU [FMN A SS t8]", "apparent KD of K4 kissing-loop reporter": 214}
{"sequence": "AUGGUAUUGCGAGGAUAUCCUUCAAACGUGACACUAACGGCAGUGAUGUUGCCGGCGUCGAUCAGAGGAGAAGGCGCGGUGUUAU [Exclusion FMN B GF 23]", "apparent KD of K4 kissing-loop reporter": 122}
{"sequence": "GCCAGUGCGCGAAGGAGCGCCGUGACAGGUUACUGCCUUGGGCAGUGAUGUUGCUCAAUCUGGCAGGUAGGUCGCGUGCACUGGC", "apparent KD of K4 kissing-loop reporter": 166}
{"sequence": "GUGCAGUGAUGUUGCACGAGGAAAGACGAUACCAGCCGUAAAUAUGGCCCUUGGCAGCGUGGGCUAGCACAAAAUGUGCUAGUCU [Zareatza]", "apparent KD of K4 kissing-loop reporter": 116}
